Test results: patent CN112409485A (BEIJING NIUAMBO BIOTECHNOLOGY CO LTD, dated 2021)

T1: Human CEACAM6 Protein, Human, Recombinant (His Tag) (human, UniProt P40199 35-320)
T1 construct: Bought antigen; also called CEACAM6抗原; CEACAM6蛋白; not shown: His tag
T1 sequence (looked up): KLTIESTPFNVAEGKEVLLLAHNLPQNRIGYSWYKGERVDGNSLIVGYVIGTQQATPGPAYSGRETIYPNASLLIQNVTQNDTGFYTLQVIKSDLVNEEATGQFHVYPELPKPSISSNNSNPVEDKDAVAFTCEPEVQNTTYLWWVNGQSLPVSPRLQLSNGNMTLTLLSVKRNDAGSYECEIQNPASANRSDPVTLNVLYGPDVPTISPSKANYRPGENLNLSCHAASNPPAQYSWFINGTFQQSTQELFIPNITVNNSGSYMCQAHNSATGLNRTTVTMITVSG


Biological target: T1, Human CEACAM6 Protein, Human, …
Assay: phage ELISA, phage-displayed VHH on coated CEACAM6

binding result	Binder
binds	单域抗体NBC10 (VHH, Alpaca VHH) VHH: QVKLEESGGGLVQAGGSLRLSCAASGRTFSNYAMGWFREAPGKEREFVGSSSRSGSFSYLVDSVKGRFTIFRDNDKNTVYLQMNSLKPEDTAVYYCAAQTAIRAGVRDDYDFWGQGAQVTVSS
binds	单域抗体NBC25 (VHH, Alpaca VHH) VHH: QVKLEESGGGLVQPGGSLRLSCAASGQTARAGIMGWFRQAPGKEREFVAAMGRSGASAYYQDSVQGRFTISRDNAQNTVFLQMNSLKPEDTAVYHCAAGNPIALTTAQYYDYWGQGTQVTVSS
binds	单域抗体NBC36 (VHH, Alpaca VHH) VHH: QVQLVESGGGLVQAGGSLRLSCVVSGIDFRINNMGWYRQAPGTQRELVASVTPGRNTNYADSVKGRFTISRDNAQNTVYLQMNSLQPEDTAVYSCSAYGPSGAYWGQGTQVTVSS
